The source of these data is article PMC3954597 (Biochemistry, 2014).

Assay [1] deals with HePTP. The conditions noted are these: cited from earlier work.
Assay [2] deals with T1, SHP-2 (Homo sapiens, UniProt Q06124).
T1 sequence (Q06124 199-593): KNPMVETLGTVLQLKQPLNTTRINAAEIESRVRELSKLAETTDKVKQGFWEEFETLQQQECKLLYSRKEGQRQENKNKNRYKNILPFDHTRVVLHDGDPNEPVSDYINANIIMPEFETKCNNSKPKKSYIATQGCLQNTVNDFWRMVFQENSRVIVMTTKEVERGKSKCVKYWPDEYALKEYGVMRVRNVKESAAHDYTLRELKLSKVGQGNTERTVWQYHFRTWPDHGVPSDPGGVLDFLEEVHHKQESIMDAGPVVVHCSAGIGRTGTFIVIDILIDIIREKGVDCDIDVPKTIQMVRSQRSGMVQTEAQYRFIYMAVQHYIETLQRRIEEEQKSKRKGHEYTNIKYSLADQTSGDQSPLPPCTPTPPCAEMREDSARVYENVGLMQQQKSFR
To be noted: catalytic domain; cited from earlier work.

The target of assay [3] is T2, TCPTP (Homo sapiens, UniProt P17706).
T2 sequence (P17706 1-314): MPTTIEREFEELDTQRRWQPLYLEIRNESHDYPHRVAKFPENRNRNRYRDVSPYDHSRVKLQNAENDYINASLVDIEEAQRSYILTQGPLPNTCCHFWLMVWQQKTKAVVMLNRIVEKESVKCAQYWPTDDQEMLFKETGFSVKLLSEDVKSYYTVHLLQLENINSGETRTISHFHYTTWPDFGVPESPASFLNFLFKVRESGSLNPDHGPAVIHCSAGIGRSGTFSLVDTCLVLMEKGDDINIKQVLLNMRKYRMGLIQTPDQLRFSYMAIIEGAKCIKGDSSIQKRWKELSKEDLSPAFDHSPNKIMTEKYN
In words: PTP assay, TCPTP. To be noted: catalytic domain; 100 mM HEPES pH 7.4; monitored at 282 nm. It is filed as biochemical.

Assay [4] concerns the target SHP-1 (Homo sapiens, UniProt P29350). The conditions noted are these: catalytic domain; cited from earlier work.
Assay [5] addresses T3, R24M PTP1B catalytic domain (amino acids 1-321) (human) (UniProt P18031).
T3 sequence: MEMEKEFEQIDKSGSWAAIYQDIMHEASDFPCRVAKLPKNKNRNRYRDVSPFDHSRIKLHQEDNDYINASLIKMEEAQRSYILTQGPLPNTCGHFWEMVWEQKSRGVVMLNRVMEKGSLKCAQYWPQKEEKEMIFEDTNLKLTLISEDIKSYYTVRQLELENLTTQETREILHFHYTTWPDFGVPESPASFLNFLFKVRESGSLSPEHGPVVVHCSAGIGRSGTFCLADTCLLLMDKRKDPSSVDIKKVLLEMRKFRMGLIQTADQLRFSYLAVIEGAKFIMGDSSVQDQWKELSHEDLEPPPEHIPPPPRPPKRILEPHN

Assay [6] addresses T4, R47E PTP1B catalytic domain (amino acids 1-321) (human) (UniProt P18031).
T4 sequence: T3 sequence with M24R, R47E

Assay [7] concerns the target T5, wild-type PTP1B catalytic domain (amino acids 1-321) (human) (UniProt P18031).
T5 sequence: T3 sequence with M24R

Assay [8] concerns the target T6, PTP-PEST catalytic domain (aa 5-300), GST fusion (human) (UniProt Q05209).
T6 sequence: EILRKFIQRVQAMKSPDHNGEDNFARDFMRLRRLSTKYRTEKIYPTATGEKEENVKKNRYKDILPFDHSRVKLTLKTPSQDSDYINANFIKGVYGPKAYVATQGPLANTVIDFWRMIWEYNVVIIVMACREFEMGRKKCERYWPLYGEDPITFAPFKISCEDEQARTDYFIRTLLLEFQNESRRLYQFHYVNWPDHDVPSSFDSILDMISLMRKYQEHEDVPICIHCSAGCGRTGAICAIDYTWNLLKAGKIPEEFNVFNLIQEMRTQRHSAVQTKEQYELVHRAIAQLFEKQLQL

Changes are numbered by the printed parent chain. Square brackets hold non-standard residues; d marks the D form. pY = N[C@@H](Cc1ccc(OP(=O)(O)O)cc1)C(=O)O

SHP-1, sequence (P29350 205-595): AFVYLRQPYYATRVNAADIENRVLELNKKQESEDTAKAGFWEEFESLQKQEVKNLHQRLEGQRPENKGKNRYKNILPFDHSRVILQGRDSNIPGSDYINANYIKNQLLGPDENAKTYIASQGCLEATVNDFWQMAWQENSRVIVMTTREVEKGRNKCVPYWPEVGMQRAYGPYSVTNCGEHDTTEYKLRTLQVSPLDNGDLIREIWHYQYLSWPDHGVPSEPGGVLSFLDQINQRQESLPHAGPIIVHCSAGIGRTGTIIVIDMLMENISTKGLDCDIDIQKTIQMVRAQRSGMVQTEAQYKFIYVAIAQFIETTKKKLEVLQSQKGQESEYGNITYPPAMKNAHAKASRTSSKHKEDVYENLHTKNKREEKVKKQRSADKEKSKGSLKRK

Consider “DHTGFLpTEpY^187VATRW [reference compound]”, for which the kcat/KM in assay [1] was 4800 M⁻¹ s⁻¹.

Turning to WDEDFpYDWEF, in assay [2], the Km was 6.3 ± 0.4 µM, the kcat is reported as 43 ± 1 ^c s^−1 and the “kcat/KM x10^6” value was 6.8 ^c x10^6 M^−1 s^−1. In assay [3], the Km came to 0.31 ± 0.01 µM, the kcat stood at 9.0 ± 0.4 s⁻¹ and the “kcat/KM x10^6” value was 29 x10^6 M^−1 s^−1. For the same molecule, in assay [4], the Km was 3.2 ± 0.3 µM, the kcat is 75 ± 2 ^c s^−1 and the “kcat/KM x10^6” value is listed as 23 ^c x10^6 M^−1 s^−1.

As to “phospho-ERK2 protein: phosphorylated ERK2 protein, HePTP substrate recruited via KIM domain”, the “rate of dephosphorylation at the same site (pY187)” value in assay [1] is 2.6 × 10^6 M^−1 s^−1.

B1: Ac-AApYADDAA-NH2 (peptide)
peptide: Ac-AA[pY]ADDAA-NH2
SMILES: CC(=O)N[C@@H](C)C(=O)N[C@@H](C)C(=O)N[C@@H](Cc1ccc(OP(=O)(O)O)cc1)C(=O)N[C@@H](C)C(=O)N[C@@H](CC(=O)O)C(=O)N[C@@H](CC(=O)O)C(=O)N[C@@H](C)C(=O)N[C@@H](C)C(N)=O
Consider B1, for which the KM, steady-state dephosphorylation of the pY peptide in assay [5] is 6.4 µM; in assay [6], 12 µM; in assay [7], 2.2 µM.

B2: Ac-AApYIRKRA-NH2 (peptide)
peptide: Ac-AA[pY]IRKRA-NH2
SMILES: CC[C@H](C)[C@H](NC(=O)[C@H](Cc1ccc(OP(=O)(O)O)cc1)NC(=O)[C@H](C)NC(=O)[C@H](C)NC(C)=O)C(=O)N[C@@H](CCCNC(=N)N)C(=O)N[C@@H](CCCCN)C(=O)N[C@@H](CCCNC(=N)N)C(=O)N[C@@H](C)C(N)=O
Turning to B2, the values for the KM, steady-state dephosphorylation of the pY peptide in assay [5] and in assay [7] were 52 µM and 89 µM, respectively.

B3: Ac-AApYDDAAA-NH2 (peptide)
peptide: Ac-AA[pY]DDAAA-NH2
SMILES: CC(=O)N[C@@H](C)C(=O)N[C@@H](C)C(=O)N[C@@H](Cc1ccc(OP(=O)(O)O)cc1)C(=O)N[C@@H](CC(=O)O)C(=O)N[C@@H](CC(=O)O)C(=O)N[C@@H](C)C(=O)N[C@@H](C)C(=O)N[C@@H](C)C(N)=O
Consider B3, for which the KM, steady-state dephosphorylation of the pY peptide in assay [6] was determined as 34 µM; in assay [7] it was 6.5 µM.

B4: Ac-AApYAAADD-NH2 (peptide)
peptide: Ac-AA[pY]AAADD-NH2
SMILES: CC(=O)N[C@@H](C)C(=O)N[C@@H](C)C(=O)N[C@@H](Cc1ccc(OP(=O)(O)O)cc1)C(=O)N[C@@H](C)C(=O)N[C@@H](C)C(=O)N[C@@H](C)C(=O)N[C@@H](CC(=O)O)C(=O)N[C@@H](CC(=O)O)C(N)=O
On to B4, for which the KM, steady-state dephosphorylation of the pY peptide in assay [5] turned out to be 8.7 µM; in assay [6], 10 µM; in assay [7], 3 µM.

B5: nephrin pY1217 peptide Ac-DPRGIpYDQVAG-NH2 (peptide)
peptide: Ac-DPRGI[pY]DQVAG-NH2
SMILES: CC[C@H](C)[C@H](NC(=O)CNC(=O)[C@H](CCCNC(=N)N)NC(=O)[C@@H]1CCCN1C(=O)[C@H](CC(=O)O)NC(C)=O)C(=O)N[C@@H](Cc1ccc(OP(=O)(O)O)cc1)C(=O)N[C@@H](CC(=O)O)C(=O)N[C@@H](CCC(N)=O)C(=O)N[C@H](C(=O)N[C@@H](C)C(=O)NCC(N)=O)C(C)C
Turning to B5, the KM, steady-state dephosphorylation of the pY peptide in assay [5] is 71 µM; in assay [6], 23 µM; in assay [7] it was 7.1 µM.

B6: Ac-AApYAADDA-NH2 (peptide)
peptide: Ac-AA[pY]AADDA-NH2
SMILES: CC(=O)N[C@@H](C)C(=O)N[C@@H](C)C(=O)N[C@@H](Cc1ccc(OP(=O)(O)O)cc1)C(=O)N[C@@H](C)C(=O)N[C@@H](C)C(=O)N[C@@H](CC(=O)O)C(=O)N[C@@H](CC(=O)O)C(=O)N[C@@H](C)C(N)=O
Regarding B6, the results for the KM, steady-state dephosphorylation of the pY peptide in assay [5], in assay [6] and in assay [7] were 6.9 µM, 11 µM and 2.6 µM, respectively.

B7: Ac-YRKRFpYRYKF-NH2 (basic) (peptide)
peptide: Ac-YRKRF[pY]RYKF-NH2
SMILES: CC(=O)N[C@@H](Cc1ccc(O)cc1)C(=O)N[C@@H](CCCNC(=N)N)C(=O)N[C@@H](CCCCN)C(=O)N[C@@H](CCCNC(=N)N)C(=O)N[C@@H](Cc1ccccc1)C(=O)N[C@@H](Cc1ccc(OP(=O)(O)O)cc1)C(=O)N[C@@H](CCCNC(=N)N)C(=O)N[C@@H](Cc1ccc(O)cc1)C(=O)N[C@@H](CCCCN)C(=O)N[C@@H](Cc1ccccc1)C(N)=O
For B7, in assay [8], the kcat/KM, steady-state dephosphorylation of the pY peptide (KM not given) came to 1500 M⁻¹ s⁻¹.

B8: Ac-ARKRIpYAA-NH2 (peptide)
peptide: Ac-ARKRI[pY]AA-NH2
SMILES: CC[C@H](C)[C@H](NC(=O)[C@H](CCCNC(=N)N)NC(=O)[C@H](CCCCN)NC(=O)[C@H](CCCNC(=N)N)NC(=O)[C@H](C)NC(C)=O)C(=O)N[C@@H](Cc1ccc(OP(=O)(O)O)cc1)C(=O)N[C@@H](C)C(=O)N[C@@H](C)C(N)=O
For B8, the results for the KM, steady-state dephosphorylation of the pY peptide in assay [6] and in assay [7] were 31 µM and 166 µM, respectively.

B9: Ac-AApYDDIDE-NH2 (peptide)
peptide: Ac-AA[pY]DDIDE-NH2
SMILES: CC[C@H](C)[C@H](NC(=O)[C@H](CC(=O)O)NC(=O)[C@H](CC(=O)O)NC(=O)[C@H](Cc1ccc(OP(=O)(O)O)cc1)NC(=O)[C@H](C)NC(=O)[C@H](C)NC(C)=O)C(=O)N[C@@H](CC(=O)O)C(=O)N[C@@H](CCC(=O)O)C(N)=O
B9: the KM, steady-state dephosphorylation of the pY peptide was 37 µM in assay [5], 56 µM in assay [6] and 3.5 µM in assay [7].

B10: Ac-EEDNAWpYAA-NH2 (peptide)
peptide: Ac-EEDNAW[pY]AA-NH2
SMILES: CC(=O)N[C@@H](CCC(=O)O)C(=O)N[C@@H](CCC(=O)O)C(=O)N[C@@H](CC(=O)O)C(=O)N[C@@H](CC(N)=O)C(=O)N[C@@H](C)C(=O)N[C@@H](Cc1c[nH]c2ccccc12)C(=O)N[C@@H](Cc1ccc(OP(=O)(O)O)cc1)C(=O)N[C@@H](C)C(=O)N[C@@H](C)C(N)=O
B10: the values for the KM, steady-state dephosphorylation of the pY peptide in assay [5], in assay [6] and in assay [7] were 1.9 µM, 9.5 µM and 1.3 µM, respectively.

B11: Ac-SASASpYSASA-NH2 (neutral) (peptide)
peptide: Ac-SASAS[pY]SASA-NH2
SMILES: CC(=O)N[C@@H](CO)C(=O)N[C@@H](C)C(=O)N[C@@H](CO)C(=O)N[C@@H](C)C(=O)N[C@@H](CO)C(=O)N[C@@H](Cc1ccc(OP(=O)(O)O)cc1)C(=O)N[C@@H](CO)C(=O)N[C@@H](C)C(=O)N[C@@H](CO)C(=O)N[C@@H](C)C(N)=O
Regarding B11, the KM, steady-state dephosphorylation of the pY peptide in assay [8] was 800 µM.
